B1: F1*; the commonest letter at each place (parent)
chain: GAGACCGCAACTGAAAAGTTGTTATCACTTGTCGTAAGACACTTTGGATGGGTTGAAGTTCTGCACGTAGAAGCAAAAGGC

Variants of: B1
Experiment: fraction ligated after 30 min (ligated reads / total reads); higher = more ligase activity
Details: with F1*sub RNA substrate (template-directed ligation), 42 °C
Description: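 Chip-synthesised pool of F1* ligase ribozyme variants (all single and double substitutions, single, double and triple deletions in the catalytic core and GAA bulge, plus designed variants) was transcribed with T7 and reacted as a pool with excess substrate F1*sub for 30 min at 42 C in 50 mM EPPS pH 8.5, 25 mM MgCl2. Ligated and unligated bands were separated by PAGE, barcoded by RT and deep sequenced; fraction ligated = ligated reads / total reads per variant, relative activity = FL / FL of wild type (0.826). Sequences are the DNA template of the ribozyme.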
In the case of C26T A57C, the fraction ligated is reported as 0.84. With C26T A57G the fraction ligated was 0.86. Variant C26T A57T has a fraction ligated of 0.852. C26T C33G showed a fraction ligated of 0.819. C26T C33A was tested, and the fraction ligated was 0.798. C26T C33T was tested, and the fraction ligated was 0.829. In the case of C26A T29C, the fraction ligated is reported as 0.804. Variant C26A T29G has a fraction ligated of 0.784. Variant C26A T29A has a fraction ligated of 0.786. Variant C26G G38A has a fraction ligated of 0.446. C26G G38T was tested, and the fraction ligated was 0.0811. For C26G G38C, the fraction ligated was 0.00552. In the case of C26G T35G, the fraction ligated is reported as 0.784. Variant C26G T35A has a fraction ligated of 0.79. For C26G T35C, the fraction ligated was 0.772. C26G T43C gave a fraction ligated of 0.689. With C26G T43G the fraction ligated was 0.479. Variant C26G T43A has a fraction ligated of 0.783. With C26G A39G the fraction ligated was 0.755. C26G A39C was tested, and the fraction ligated was 0.123. Variant C26G A39T has a fraction ligated of 0.493. In the case of C26A G46T, the fraction ligated is reported as 0.449. In the case of C26A G46C, the fraction ligated is reported as 0.744. For C26A G46A, the fraction ligated was 0.73. Work on T25G T44A yielded a fraction ligated of 0.737. Work on T25G T44C yielded a fraction ligated of 0.741. T25G T44G showed a fraction ligated of 0.474. In the case of T25G T32C, the fraction ligated is reported as 0.364. With T25G T32A the fraction ligated was 0.324. Variant T25G T32G has a fraction ligated of 0.293. C26A A39G gave a fraction ligated of 0.75. For C26A A39T, the fraction ligated was 0.721. C26A A39C showed a fraction ligated of 0.627. C26A G31A was tested, and the fraction ligated was 0.261. C26A G31T gave a fraction ligated of 0.0438. In the case of C26A G31C, the fraction ligated is reported as 0.226. Work on C26G T49A yielded a fraction ligated of 0.188. In the case of C26G T49G, the fraction ligated is reported as 0.371. Work on C26G T49C yielded a fraction ligated of 0.0764. With C26T C28A the fraction ligated was 0.795. Work on C26T C28T yielded a fraction ligated of 0.733. With C26T C28G the fraction ligated was 0.768. For C26G G55T, the fraction ligated was 0.0355. With C26G G55A the fraction ligated was 0.169. C26G G55C was tested, and the fraction ligated was 0.00657. C26T A39C was tested, and the fraction ligated was 0.789. For C26T A39T, the fraction ligated was 0.823. Work on C26T A39G yielded a fraction ligated of 0.819. For T25G A56T, the fraction ligated was 0.0925. With T25G A56G the fraction ligated was 0.0638. T25G A56C gave a fraction ligated of 0.0423. Variant T25G T35C has a fraction ligated of 0.785. T25G T35A was tested, and the fraction ligated was 0.787. For T25G T35G, the fraction ligated was 0.804. T25G G31A was tested, and the fraction ligated was 0.0861. In the case of T25G G31T, the fraction ligated is reported as 0.0799. T25G G31C showed a fraction ligated of 0.0618. T25G G46T gave a fraction ligated of 0.134. Work on T25G G46C yielded a fraction ligated of 0.135. For T25G G46A, the fraction ligated was 0.266. C26A A27C gave a fraction ligated of 0.842. Variant C26A A27G has a fraction ligated of 0.747. In the case of C26A A27T, the fraction ligated is reported as 0.747. C26A G34T gave a fraction ligated of 0.808. With C26A G34A the fraction ligated was 0.786. With C26A G34C the fraction ligated was 0.805. T25G T45A was tested, and the fraction ligated was 0.0602. Variant T25G T45G has a fraction ligated of 0.0229. With T25G T45C the fraction ligated was 0.0153. In the case of C26T T44C, the fraction ligated is reported as 0.822. With C26T T44A the fraction ligated was 0.845. Work on C26T T44G yielded a fraction ligated of 0.836. C26T A37G was tested, and the fraction ligated was 0.841. For C26T A37T, the fraction ligated was 0.853. For C26T A37C, the fraction ligated was 0.841. C26T G31C gave a fraction ligated of 0.408. C26T G31A gave a fraction ligated of 0.342. With C26T G31T the fraction ligated was 0.585. For C26G T44G, the fraction ligated was 0.776. Variant C26G T44A has a fraction ligated of 0.781. In the case of C26G T44C, the fraction ligated is reported as 0.731. For C26A C40G, the fraction ligated was 0.793. In the case of C26A C40A, the fraction ligated is reported as 0.755. C26A C40T showed a fraction ligated of 0.814. In the case of C26G A41C, the fraction ligated is reported as 0.0431. C26G A41G was tested, and the fraction ligated was 0.716. With C26G A41T the fraction ligated was 0.459. T25G G55A showed a fraction ligated of 0.442. T25G G55T showed a fraction ligated of 0.132. For T25G G55C, the fraction ligated was 0.0471. Variant T25G A57G has a fraction ligated of 0.703. For T25G A57T, the fraction ligated was 0.563. With T25G A57C the fraction ligated was 0.556. For C26T C40T, the fraction ligated was 0.833. C26T C40G gave a fraction ligated of 0.817. Work on C26T C40A yielded a fraction ligated of 0.797. C26A G55T showed a fraction ligated of 0.249. For C26A G55A, the fraction ligated was 0.618. In the case of C26A G55C, the fraction ligated is reported as 0.0379. C26G A37G gave a fraction ligated of 0.762. Work on C26G A37T yielded a fraction ligated of 0.707. Work on C26G A37C yielded a fraction ligated of 0.674. For T25G C40A, the fraction ligated was 0.229. In the case of T25G C40T, the fraction ligated is reported as 0.732. T25G C40G was tested, and the fraction ligated was 0.58. For C26T G38T, the fraction ligated was 0.478. C26T G38C was tested, and the fraction ligated was 0.81. C26T G38A was tested, and the fraction ligated was 0.823. Work on C26A T32A yielded a fraction ligated of 0.48. Variant C26A T32C has a fraction ligated of 0.545. C26A T32G showed a fraction ligated of 0.499. C26A A56C was tested, and the fraction ligated was 0.0368. C26A A56T was tested, and the fraction ligated was 0.14. Work on C26A A56G yielded a fraction ligated of 0.096. Work on T25G T29A yielded a fraction ligated of 0.773. T25G T29G was tested, and the fraction ligated was 0.714. T25G T29C was tested, and the fraction ligated was 0.385. Work on C26G C42T yielded a fraction ligated of 0.76. In the case of C26G C42A, the fraction ligated is reported as 0.767. C26G C42G gave a fraction ligated of 0.7. In the case of C26A T49A, the fraction ligated is reported as 0.216. With C26A T49C the fraction ligated was 0.0891. With C26A T49G the fraction ligated was 0.502. C26G C40A gave a fraction ligated of 0.248. In the case of C26G C40G, the fraction ligated is reported as 0.793. C26G C40T was tested, and the fraction ligated was 0.678. C26G G31T gave a fraction ligated of 0.0375. In the case of C26G G31C, the fraction ligated is reported as 0.176. C26G G31A showed a fraction ligated of 0.165. With T25G C42T the fraction ligated was 0.797. T25G C42A was tested, and the fraction ligated was 0.737. Work on T25G C42G yielded a fraction ligated of 0.737. In the case of T25G C28G, the fraction ligated is reported as 0.541. T25G C28A was tested, and the fraction ligated was 0.348. Variant T25G C28T has a fraction ligated of 0.675. With C26G T29C the fraction ligated was 0.749. Work on C26G T29G yielded a fraction ligated of 0.778. C26G T29A showed a fraction ligated of 0.789. Variant T25G T43G has a fraction ligated of 0.515. With T25G T43A the fraction ligated was 0.684. For T25G T43C, the fraction ligated was 0.409. Variant C26T A36G has a fraction ligated of 0.828. Work on C26T A36C yielded a fraction ligated of 0.788. C26T A36T was tested, and the fraction ligated was 0.827. Work on T25G A39G yielded a fraction ligated of 0.759. Work on T25G A39C yielded a fraction ligated of 0.373. In the case of T25G A39T, the fraction ligated is reported as 0.393. C26G A56G showed a fraction ligated of 0.0248. Variant C26G A56C has a fraction ligated of 0.0241. C26G A56T gave a fraction ligated of 0.0342. Work on C26A C42A yielded a fraction ligated of 0.773. With C26A C42G the fraction ligated was 0.731. C26A C42T was tested, and the fraction ligated was 0.793. Work on C26A T44G yielded a fraction ligated of 0.78. For C26A T44A, the fraction ligated was 0.792. Variant C26A T44C has a fraction ligated of 0.782. T25G was tested, and the fraction ligated was 0.784. For C26A A57G, the fraction ligated was 0.804. In the case of C26A A57C, the fraction ligated is reported as 0.717. C26A A57T was tested, and the fraction ligated was 0.738. In the case of T25C T49C, the fraction ligated is reported as 0.757. T25C T49A showed a fraction ligated of 0.777. Variant T25C T49G has a fraction ligated of 0.777. Variant T25G A36C has a fraction ligated of 0.77. Variant T25G A36G has a fraction ligated of 0.795. With T25G A36T the fraction ligated was 0.795. For C26A A36T, the fraction ligated was 0.823.
